The target of data set [1] is GST-DLC1/PIN fusion protein (wild type).
Data set [2] concerns the target T1, GST fusion containing the C-terminal 19 amino acids of DLC1/PIN.
T1 chain: KHFIYFYLGQVAILLFKSG

The target of data set [3] is GST-DLC1/PIN with deletion of Ser88.

B1: GST-Pak1 fusion protein, wild-type (amino acids 1-545) (protein)
chain: MSNNGLDIQDKPPAPPMRNTSTMIGVGSKDAGTLNHGSKPLPPNPEEKKKKDRFYRSILPGDKTNKKKEKERPEISLPSDFEHTIHVGFDAVTGEFTGMPEQWARLLQTSNITKSEQKKNPQAVLDVLEFYNSKKTSNSQKYMSFTDKSAEDYNSSNALNVKAVSETPAVPPVSEDEDDDDDDATPPPVIAPRPEHTKSVYTRSVIEPLPVTPTRDVATSPISPTENNTTPPDALTRNTEKQKKKPKMSDEEILEKLRSIVSVGDPKKKYTRFEKIGQGASGTVYTAMDVATGQEVAIKQMNLQQQPKKELIINEILVMRENKNPNIVNYLDSYLVGDELWVVMEYLAGGSLTDVVTETCMDEGQIAAVCRECLQALEFLHSNQVIHRDIKSDNILLGMDGSVKLTDFGFCAQITPEQSKRSTMVGTPYWMAPEVVTRKAYGPKVDIWSLGIMAIEMIEGEPPYLNENPLRALYLIATNGTPELQNPEKLSAIFRDFLNRCLDMDVEKRGSAKELLQHQFLKIAKPLSSLTPLIAAAKEATKNNH
On to B1, for which the “in vitro kinase assay (phosphorylation of GST-DLC1/PIN by purified Pak1 enzyme)” value in data set [1] was “The Pak1 enzyme efficiently phosphorylated DLC1/PIN”. Further, the “in vitro kinase assay with DLC1/PIN deletions” value in data set [2] is “GST fusion containing the C-terminal 19 amino acids of DLC1/PIN was efficiently phosphorylated by Pak1”; in data set [3] it was “Deletion of Ser88 of DLC1/PIN completely abolished the ability of the Pak1 to phosphorylate DLC1/PIN”.

Values taken from patent US20040208880.
